Results from the DeepSol protein solubility set.

Test: soluble on expression in E. coli; label from the status in PepcDB or PDB records

Sequence	soluble on expression in E. coli
MGSDKIHHHHHHMDVANKIKVIDRLRLGFAVLVAKSVTFLVRSLRLGAASVLPGSIARRIEPRLLQLLSQQVQNGVIIIAGTNGKTTTALLLCTILENKGYRVCHNSTGANLENGLMTALLDSTNLVGTLDVDYAILEVDENIVPRVLKPLQPRIILCLNLFRDQLDRYGEVDTISKRWTKVISTLPRETVVIPNADDPTLSLLGQQLPQKVLFFGLNEPEHYLEAIPHAVDSIYCPQCGHSLDYQGVYLSHLGDFTCPSCGFTKSQPTLASREWSQILVGLYNKYNTLAATTAAIELGVDETTIRDTINNFQAAFGRAEDLVIDGKRVRILLSKNPVGTNETIRVVTQSTDKTTLLVLNDRTPDGTDVSWIWDVDTEKLVERGGTLVVSGDRVYDMALRLRYSEKSAQSNLNLIVEADLRQAIATALEHTPATETLHILPTYSAMLEVREVLTGRKIL	not soluble
MGSDKIHHHHHHMDVTQLKMLHNAKVISEIKKGFSVDRKYQVDETYLVRVFPIDLLQERKQEFKIIQALDSQTPFVPKAYDFGFIEREGYMIISYLRGEDAESGMTHLSHSEQFKAGFSAGEILREVHKIPLDIPKMNWLDFQTAKFKRKVEELKELEITASFLTDTEKFVYKNIARLKNRPICLQHGDFHPANIILNNKKFVGLIDFNRLEFGDPLFDLAKIGFFTTEVSIPFARGNILGYIDKEEVTDFWNLYALYTAMHITSAVSWAAKNESRNFKKLMDYAVKTAASHDNFQKIVPNWMNEEEFK	not soluble
MGSDKIHHHHHHMDWTNIPPLYALKAFESAAKHQSFTLAASELFISQSAISKHINTIEIFFGRKLFYRKGPKVFLTKEGESFAGDLRHAFEILSKACENIHRAGIVLTISSPYTFSIRQFIPVLRKYKNQDGFPIVTVETINDDYSHSIVNLKNHDATVKYGDGKFSDEWNCTLLSPECLIVVVSPKLLHLFEKDNRILIDLVYVKSRELDWFSWCEESRLKERFQVINKYEFESMDSAINAVIKGLGVAVVDIGMVCDELMDGVLLTPFKFSFYSGRGYYFLRGGDDDNYLSSLLECVRLDLSGRGLAELCFNDKCDMGNCRLAATKKITK	not soluble
MGSDKIHHHHHHMDYMKKLLGAEDLFDRDEPLKGVRVLEVCSVVLGPAATDYLAEFGAEVIKFEARRGDQMRYVTPYAYFWRNLSPGLLEQNHNKYWVGMHLGHPKARELFYEFVKRSDVVVDNLTPGRLSKWGISYDRLREINPRIIQLHVSGFGSWGPYTGRTSYDAIAQSEGGLAYITGFEGRGPLKSGVWIADWTTALMCAVAIVAALNYRERTGEGQYIDYSQVENVIRFLDWTWTYVDMTGENRERVGNRDLAICPSDLFDCKDGWVAIVAFSEEEFKGLCQAMGRMDLYEKFADPLERLKDENARLILKEIAEWAKTKTVKDVEELADKYGFAASHVIEVDEAYYSEHLRERGAIMAYDDPLYGEFVEPCYPPRMETPSRLKWGARPLGFDNEFVLTKYLGLSMDEIEQLYEEGVIYRWNPDVKPQCPPPDWDGKKGLKFP	not soluble
MGSDKIHHHHHHMDYWEKADYSWSDDSKRHILTPSSKSRTLFYYIQEIGQFKASRPYYTERAHLPSYLIKFTLNGTGELRYRYHTYSLQRGDLFFIDCRDYQYYQATSEDPWEMDWIHFEGGNSGAFFQEFMKNGSPVFSTNQLPEDNPIHLIIQQLLQLQDLQHAQTDYQSSVLIHQLLNELLLQKYRQDFTYETIPSLVLEMKAYIDQHFKETISLEDLAQLFHLNKYQLNKEFSKYIGLPPIKYQISKKISYSKDLLRYSNQTVKEIAVDVGLENYAYFSRLFKKRTGLTPSQYRKSGF	not soluble
MGSDKIHHHHHHMEATTNNMKDVTGAELLICTIGHSTHPLEEFINLLKKNEVTHLLDVRTVPRSRHNPQFNKETLPDALGAIGIKYTHLSGLGGLRHARKDSINEGWRNASFRGYADYMQTQEFVENVNRVIELAAHDRCALMCAEAVPWRCHRSLIADALVVRGVRVEDIIDNHGRKPHSLTPWAQAEGVRIFYPAQQGRLI	not soluble
MGSDKIHHHHHHMEEARIKALISLLDDEDVEVISQVEKELLAQGGSMIPFLEKEWEENFNPIVQKRIEDLVHLLQFVLLEDRLSQWKNKGGTDLMEGLWLICTYQYPDLEFNTIKSAMEQIYYEVWLDMKPDMLPLEQVKLVMNNVLFNKLKFSANTKNFHSPANSMISQVLESKKGNPISLCCIYMMVAQKLKLPVYGVNLPTLFILTYKSDDTQFYISPFHKGLIFTKEDIDNYLLQLNLAPIDLYYQPCNNIDIVARVLRNLIVSFEKLSEMERVDDVKKMLHFLTGEKY	not soluble
MGSDKIHHHHHHMEEGSAGMGMSQNNSTLVAPQPKGIIDPATGKPVGSNDAYFTEINDELADKGFLVTSTDELITWARTGSLMWMQFGLACCAVEGLMQASGPRYDMERFGVAPRASPRQSDVMIVAGTLTNKMAPALRKVYDQMPEPRYVISMGSCANGGGYYHYSYAVVRGCDRVVPVDIYVPGCPPTAEALLYGVLLLQKKIRRTGTIER	not soluble
MGSDKIHHHHHHMEETAETPAAVIPPPPPEDEPAELPATLGFVSHQPVMDRQQRVVAYDFFVRQGKRNIEAGKQQEFDRLLLATLHNMDIFRLLAYRRAFVHIAMTSLDDPQLRGMPAGSVIFVLEPLPGMVVAEHMLRQLDELQKLGLRFALEPAAYDQNMLSPALQADLFSRVDFMVLDFAGPSTRVLAPILDQLPKRYPGARWLARNVGTAEDMDVCLRAPGHNRFALFHGPFVTTAHALEGGKVDTNQTRVLQIMRLLRTNADPKEVEAQFKLDSVLLFKLLRFINSPIHGLSRKVQTIEETLLLLGRETLFKWLSMLLFTSRKEDGTALSLLEKSLIRARFMEKLGGYRGNKLEAEHLFLTGMFSLLDVLLNQPFPDVLDPLELPLTVREAVVERKGIFAPHLALAMACEQGDNVQIEALAKVLDFDLDLANQYYLDSVVWAQVVLRDSEVHNNVEAV	not soluble
MGSDKIHHHHHHMEETFQLLYDTYHQDLYQFLFYMVKDKNQTEDLLQEVYIRVLNSYHTFEGRSSEKTWLLSIARHVAIDWFRKQQTIRQRILGTFDWDTQDVRDQQLLPDELAVQHENVREISCALDQCTIDQRAVIILRFIQGYSIQETAKALRFSESKVKTTQHRGLKVLRKHMELLREELMDDEVRMERRTDKGVVKSTSGS	not soluble
MGSDKIHHHHHHMEFSAKQIAAFIQGEIIGDENATVHTFAKIEEGMPGAISFLSNPKYTPYIYETQSSIVLVNKDFVPEHEIRATLIKVDNAYESLAKLLNLYEMSKPKKQGIDSLAYIAPSAKIGENVYIGAFAYIGENAVIGDNTQIYPHTFVGDGVKIGNGCLLYSNVNVYHDCRIGNECILHSGAVIGADGFGFAPTPNGYDKIPQIGIVILEDKVDIGANTCVDRATMGATIIHSGAKIDNLVQIAHNDEIGSHTVMAAQVGIAGSAKIGEWCMFGGQVGIAGHITIGDRVNLGAQSGIPSSIKADSVLIGTPPMEPKAYFKAAVVTKNLPDMQKEIRNLRKEVEELKQLLNK	not soluble
MGSDKIHHHHHHMEGYLNSRLVRNAARVALVVAIPATLAGCGINTIPTQDEATKTAWAEVQNQYQRRADLIPNLVATVKGYAAQEKDVLTAVTEARASATQVKVDASTITDPAQFQKFAAAQDQLSGVLGRLMVIQEQYPDLKSNQNFLALQSQLEGTENRITIARRDYNETAQKYNTTLRTFPSLLWAKTLYSDQKPAQLFQASAAAQSAPTVDFSSPPTATPPKVQ	not soluble
MGSDKIHHHHHHMEIIKKKFPKIKRDYLDTLQINIGYKCNQACSHCHVDSSPSRTEMMSDDIIKLIPKVIKANEIKLLDITGGAPELHPKFKQLVIEVRSLNVEVMDRCNLTILKEPGYESLAGFLASNKVQITASLPCYLEGNVDKQRGKGVFEKSILALKQLNNLGYGIKDKGLLLNLVYNPSTPQLPPSQKELEDIYRRELKERYGIFFSNLYVLANMPINRYENYLKTIGKLEEYNKLLKDNHNPGNINSVMCRSTLSVDWKGFLYDCDFNQQLGMKRNGNVKHLNDLLIPLVSLKNNPISTGNHCFGCTAGAGSSCGGELT	not soluble
MGSDKIHHHHHHMEKENIMTVDIEDFKKSQHILDYIDDDFAIVNSLDGIPYSNDTVRLNCFLIAVCAEGCIQLDINYRTYQLQAGDLLLGLPNTLISRTMLSPKYKIRLAGFSTRFLQRIIKMEKKTWNTAAHIHNNPVKSISEGGDDPVFRFYRDLIVAKINDEPHYYHREVMQHLFSALFCEMLGQLHKEIDAPDKGDSPKEGIKQADYTLRKFVELLSKDKGMHRSVSYYADALCYTPKHFSKVIKQACGRTPLDLINETTIEHIKYRLKRSDKSVKEIAEEFNFPNQSFFGKYVKMHLGTSPANYRNREDE	not soluble
MGSDKIHHHHHHMEKGEPIVVVKEISKSYGKVEALKEVSFAVEQGEVFGLIGPDGAGKSTLFRILTTLLLADKGTATVNGLDVVTDYKQIRTKVGYMPGRFSLYQDLSVEENLEFFATVFHTLIQENYDLIKDIYQQIEPFKKRRAGALSGGMKQKLALSCSLIHKPDILFLDEPTTGVDPVSRKEFWQMLRNLRKQGITIIVSTPIMDEARQCDRIAFINHGQVHGIDTPERILQKFASILCPPPLEREEAQQMAAPVIEVEQLTKSFGHFTAVDHISFQVQRGEIFGFLGANGAGKTTAMRMLCGLSRPTSGVGKVAGYDIFREAEQVKRHIGYMSQKFSLYEDLKVWENIRLFAGIYGMKEMEIEEKTDELLERLGFADERDTLVKNLPLGWKQKLAFSVSIFHEPKIVFLDEPTGGVDPATRRQFWELIYQAADRGITVFVTTHYMDEAEYCNRISIMVDGQIKALDTPARLKEQFGVETMDDVFQQLARHAVRKAD	not soluble
MGSDKIHHHHHHMEKIKGKNTVNCEICLHNSKTRPMFKHEGKNICIECLNALKFPRNFEEMKNEVMDYLDELRIRNNKYNCILGFSGGKDSVVALYLLVKELRIRPLCVTVDNGYLAEEALTNCKNVAKYFGVDWLVINKDFTKFFKETISKGESPCRVCSDMNMHELWQFARQTNIDTIVTGHELPFGTTAIRGMKKGINMLRLLVAYKLTEEDRYNILKEIPWEKPDLGGYTTNCLVLAPALVEFKKKHGFSFEYDRVSAMIRYGLMTREEAEEALKCPEVSDEIYEELKKRGLDFKNLKE	not soluble
MGSDKIHHHHHHMEKKVLIVGISQKQKDFDYSMEELANLAAANNMEVVGEIRQNIDRENRATYVGKGKVDEIKGLAEMQDARLIIFNDELSPSQIRNLEEALELDVMDRTGLILAIFANRAKTKEAQLQVQIAKLQYELPRIFGQGEDMDQQSGKGGLSNRGSGEKKIETDRRTIKYQIRHLQKELDMLVDDREVRRRKRKKNEIPVVSLVGYTNAGKSTTMNGLVRAYSETAEKQVFEKDMLFATLETSVREIVLPDNKQFLLTDTVGFVSKLPHQLVKAFRSTLEEARDADLLIHVVDYSDPHYKTMMKTTEETLKAVGVEDVPVIYAYNKADLIEGEIYPKQTENTIVFSAREKESLEFLTEVIRKELFASYEKATFLIPFEAGNVVAYLNDHADVLATEYLENGTQIVAEVSPADLQKLAEYQVAE	not soluble
MGSDKIHHHHHHMEKTILVHAAACAPAESCGYVVNTSAGERYFPCQNLSAEPTMYFRMAPEDYLRAQAAGDVVALVHSHPDGLPFLSDVDRRLQVQSGLPWWLVCHDRIYTFRCVPFLTGRVFEHGVTDCYTLFRDAYHLAGIEMPDFSRGEDWWKNGENLYLDNLEATGFYRVSGEEAQSGDILICCFGSSVANHAAIYCGNGELLHHIPDQLSKRERYTDKWQRRTHSIWRHRAWHESAFTGIYNDLAAALASV	not soluble
MGSDKIHHHHHHMEKVIYIVWRDPSTKPETFAHDLRTKLAQQLLQLGARGVQINVQDEDVAPAAALRQVNTLPQMDGLVSVWVDSAITSLRRPFDDAVLAATGRMAGYLVTESQPIRNTRHPARAGERTPGFSQLAFLKRPPRLTHEAWLDTWHNRHTQVAIDTQDTFLYVQNVVVRALTYGAPPLDAVVEEGFPEAAMTDPQAFFDAPGDEAKYQRNLAAMMESCQRFIDFDKIDVVASSQYIVRPPAA	not soluble
